The source of these data is article PMC8415317 (Genes & Development, 2021).

Series [1] deals with ERH-2. The class given is binding, C. elegans.
The target of series [2] is T1, ERH-2 (Caenorhabditis elegans, UniProt Q20057).
T1 sequence (Q20057 1-113): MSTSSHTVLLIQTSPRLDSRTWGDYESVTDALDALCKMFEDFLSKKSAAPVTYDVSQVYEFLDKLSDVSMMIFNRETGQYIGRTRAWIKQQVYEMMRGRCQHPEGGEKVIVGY
The series can be described thus: NMR-monitored titration of 15N-labeled ERH-2. The settings on record: 1H-15N HSQC titration, 25°C, NMR buffer pH 7.50, ERH-2 ~200 μM. In kind it is binding, C. elegans.

Series [3] deals with T2, ERH-2:PID-3^pep 1:2 (Caenorhabditis elegans, UniProt O76616+Q20057).
T2 sequence (Q20057 1-113): T1 sequence (Q20057 1-113)
T2 sequence (O76616 171-203 partner limits assumed): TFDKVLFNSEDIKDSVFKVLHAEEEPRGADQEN
The series can be described thus: Isothermal titration calorimetry, binding to ERH-2:PID-3^pep 1:2. The arrangement: species or system C. elegans.

The target of series [4] is T3, ERH-1 (Caenorhabditis elegans, UniProt Q22640).
T3 sequence (Q22640 1-103): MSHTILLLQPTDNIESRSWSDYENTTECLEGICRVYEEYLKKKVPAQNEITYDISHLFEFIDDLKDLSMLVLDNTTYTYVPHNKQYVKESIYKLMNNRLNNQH
The series can be described thus: Isothermal titration calorimetry, binding to ERH-1. The arrangement: species or system C. elegans.

Series [5] deals with T1, ERH-2. The series can be described thus: Isothermal titration calorimetry, binding to ERH-2. The arrangement: species or system C. elegans.
The target in series [6] is T3, ERH-1. The series can be described thus: Streptavidin pull-down, TOST-1/PID-1 mVenus-Strep bait with ERH-1. The class given is binding, C. elegans. Particulars: TOST-1 or PID-1 mVenus-Strep bait 10-20 μM, prey 1.2-fold molar excess, 4°C.
Series [7] deals with ERH-2. The series can be described thus: Streptavidin pull-down, TOST-1/PID-1 mVenus-Strep bait with ERH-2. In kind it is binding, C. elegans. The settings on record: TOST-1 or PID-1 mVenus-Strep bait 10-20 μM, prey 1.2-fold molar excess, 4°C.
The target of series [8] is T4, TOFU-6^RRM (C. elegans, UniProt Q09293 1-99).
T4 sequence (looked up): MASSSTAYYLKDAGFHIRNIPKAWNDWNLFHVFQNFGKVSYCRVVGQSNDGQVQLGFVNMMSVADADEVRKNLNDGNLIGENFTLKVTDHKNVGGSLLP
The series can be described thus: SEC.

The nature of series [9]: SEC-MALS, molecular mass and oligomeric state. In kind it is physicochemical, C. elegans. Particulars: for average molecular mass: 2-5 mg/mL, 20 mM Tris/HCl pH 7.5, 150 mM NaCl, 2 mM DTT.
Series [10] deals with the molecule itself. The series can be described thus: SEC-MALS.
For series [11], the target named is T5, TOST-1-mVenus-Strep (C. elegans, UniProt Q18490 1-142).
T5 sequence (looked up): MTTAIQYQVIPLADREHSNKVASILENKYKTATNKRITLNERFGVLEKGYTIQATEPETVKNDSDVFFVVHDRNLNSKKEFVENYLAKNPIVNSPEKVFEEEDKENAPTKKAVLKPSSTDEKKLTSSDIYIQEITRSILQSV
The series can be described thus: pull-down.

Series [12] concerns PID-3/TOFU-6 interaction. The class given is binding, C. elegans.
Series [13] deals with Cy5-labeled 16-mer oligo(U) RNA. The series can be described thus: Fluorescence anisotropy RNA binding, Cy5-U16. Particulars: 100 nM Cy5-U16 RNA, 10 mM Tris/HCl pH 7.5, 50 mM KCl, 0.5 mM EDTA, ≥2 h at 15°C, single binding site model, n = 3 technical replicates.
Series [14] addresses T6, full-length ERH-2^FL (C. elegans, UniProt Q20057 1-113).
T6 sequence (looked up): T1 sequence (Q20057 1-113)
The series can be described thus: ITC.

Series [15] concerns the molecule itself. The series can be described thus: crystal structure.
The test system of series [16] is TOST-1. The series can be described thus: Streptavidin pull-down of ERH-2 variants with TOST-1-mVenus-Strep. In kind it is binding, C. elegans. Particulars: ERH-2 variants as prey, TOST-1-mVenus-Strep as bait.

Substitutions are numbered along the chain they refer to. In names and notes the source's numbering stands. Where no end group is shown, it is not given here.

Consider “GST-PID-3^pep: GST-tagged PID-3 peptide (residues 171–203) (TFDKVLFNSEDIKDSVFKVLHAEEEPRGADQEN; also: N-terminal His6 and GST tags, order not given here)”, for which the “binding to ERH-2 in GST pull-down” value in series [1] is reported as “ERH-2 could indeed bind to GST-PID-3^pep”.

In the case of KYKTATNKRITLNERFGVLEKGYTIQ [TOST-1^pep], the “dissociation constant range from NMR exchange regime” value in series [2] is “micromolar range”. The Kd in [3] came out at 4 ± 2 µM; in series [4] it was 10 ± 2 µM. Turning to “NYNTNLHRKVTLSDRFELAALGYEMKAK [PID-1^pep]”, the results for the Kd in series [5] and in series [4] were 24 ± 3 µM and 73 ± 11 µM, respectively. In addition, the “dissociation constant range from NMR exchange regime” value in series [2] is on record as “micromolar range”. As for “PID-1: full-length PID-1, C-terminally tagged with monomeric Venus StrepII tag (NYNTNLHRKVTLSDRFELAALGYEMKAK)”, in series [6], the “binding to ERH-1 in streptavidin pull-down” value is on record as “interacted with ERH-1”. For the same molecule, the “binding to ERH-2 in streptavidin pull-down” value in series [7] is “Both PID-1 and TOST-1 bound ERH-2”.

B1: PID-3^RRM (domain or fragment, C. elegans, UniProt O76616 196-274, looked up)
chain: PRGADQENMLKISGYPGMLNTFGIAQLLTPYRVNGITITGAQSAVVALENKFQVYQAVQDFNGKKLDRNHKLQVSSLVV
On to B1, for which the binding result in series [8] is “binds”.

B2: PID-3^RRM A220E (protein)
chain: B1 chain with A25E
modifications: left off: His6, N-terminal, kept | GST, N-terminal, kept
On to B2, for which the oligomeric state result in series [9] is reported as “monomeric”.

B3: PID-3^RRM F247E/Q251R (purified) (domain or fragment, C. elegans, UniProt O76616 196-274, looked up)
chain: B1 chain with F52E, Q56R
Regarding B3, the “stoichiometry N” value in series [10] is 2.

B4: PID-3^RRM F247E/Q251R (protein)
chain: B1 chain with F52E, Q56R
modifications: left off: His6, N-terminal, kept | GST, N-terminal, kept
Turning to B4, the oligomeric state entry in [9] was “homodimeric”.

B5: ERH-1 (natural protein, C. elegans, UniProt Q22640 1-103, looked up)
chain: T3 sequence (Q22640 1-103)
Turning to B5, the binding result in series [11] is listed as “binds”.

B6: I182E and S185E: GST-tagged PID-3 mutant(s), Ile182 and Ser185 to glutamate (conjugate, UniProt O76616 1-307, looked up, variant I182E S185E)
Protein pid-3: MVAHQKADFKSKWAMVVTVNNLNDKKRADLREFSEWFIETLRLEGAFIGHYFNYEAAPVTIVETLPGNFDSCTNAYQKIHKEHPQVVLVVHILPQSQSNEYEWMKVLASRYGFVRQGLLYDNCANRFQNVETDQNSVFRNMCQWIYRSGTAIVRNEGNACGILHGKDPKPTFDKVLFNSEDEKDEVFKVLHAEEEPRGADQENMLKISGYPGMLNTFGIAQLLTPYRVNGITITGAQSAVVALENKFQVYQAVQDFNGKKLDRNHKLQVSSLVVSSPAVPLEWPSLKKSKKLVEQVGKPIRLSKVSS
modifications: GST tag
Turning to B6, the “binding to ERH-2 in GST pull-down” value in [1] is listed as “completely abrogated binding of PID-3^pep to ERH-2”.

B7: I182A and V186A: GST-tagged PID-3 mutant(s), Ile182 and Val186 to alanine (conjugate, UniProt O76616 1-307, looked up, variant I182A V186A)
Protein pid-3: B6 Protein pid-3 with E182A, E185S, V186A
modifications: GST tag
Regarding B7, in [1], the “binding to ERH-2 in GST pull-down” value is “sufficient to abolish binding”.

B8: TOFU-6^RRM: TOFU-6 RRM domain, residues 1–99 (protein)
chain: T4 sequence (looked up)
modifications: left off: His10, N-terminal, state not stated | MBP, N-terminal, state not stated
On to B8, for which, in [12], the “PID-3/TOFU-6 interaction in pull-down” value is “the RRM domains of PID-3 and TOFU-6 mediate the interaction between the two proteins”. The molecule also registered a Kd in series [13] of around 60 µM. KYKTATNKRITLNERFGVLEKGYTIQ (peptide, UniProt Q18490 28-53, looked up) [TOST-1^pep] registered a Kd in [14] of 13 µM.

B9: ERH-2^ΔC (domain or fragment, C. elegans, UniProt Q20057 1-99, looked up)
chain: MSTSSHTVLLIQTSPRLDSRTWGDYESVTDALDALCKMFEDFLSKKSAAPVTYDVSQVYEFLDKLSDVSMMIFNRETGQYIGRTRAWIKQQVYEMMRGR
On to B9, for which, in series [15], the binding result is given as “binds”.

B10: ERH-2 T13E (purified) (natural protein, C. elegans, UniProt Q20057 1-113, looked up)
chain: T1 sequence (Q20057 1-113) with T13E
For B10, in series [11], the binding result is reported as “binds”.

B11: ERH-2: full-length C. elegans ERH-2 (protein, UniProt Q20057 1-113, looked up)
chain: T1 sequence (Q20057 1-113)
modifications: full-length
With B11, in series [9], the oligomeric state entry is given as “homodimers” and the average molecular mass was determined as 27 kDa.

B12: I81A/R83A (protein)
chain: T1 sequence (Q20057 1-113) with I81A, R83A
modifications: left off: His6, N-terminal, state not stated | Trx, N-terminal, state not stated
On to B12, for which the “binding to TOST-1 in streptavidin pull-down” value in [16] was “weaker interaction with TOST-1”.

B13: PID-3/ERH-2: PID-3/ERH-2 subcomplex (protein, UniProt O76616 1-307; Q20057 1-113, looked up)
Protein pid-3: B6 Protein pid-3 with E182I, E185S
Enhancer of rudimentary …: T1 sequence (Q20057 1-113)
The molecule B13 gave an average molecular mass in [9] of 92 kDa.

B14: W87A (protein)
chain: T1 sequence (Q20057 1-113) with W87A
modifications: left off: His6, N-terminal, state not stated | Trx, N-terminal, state not stated
Take B14: the “binding to TOST-1 in streptavidin pull-down” value in [16] was “weaker interaction with TOST-1”. Regarding TFDKVLFNSEDIKDSVFKVLHAEEEPRGADQEN (peptide, UniProt O76616 171-203, looked up) [PID-3^pep], the “stoichiometry N” value in series [14] turned out to be 0.97.
